{"source": "paper PMC4108472", "about": "“Characterization of a Novel BCHE “Silent” Allele: Point Mutation (p.Val204Asp) Causes Loss of Activity and Prolonged Apnea with Suxamethonium” (PLoS ONE, 2014)", "molecular_target": "the molecule itself", "assay": "native gel or EMSA; nondenaturing gradient gel (4–30%) of plasma samples (5 µL/lane), bands stained for BChE activity with BTC as the substrate", "note": "Values joined by “and” are separate entries in the source; they are usually repeats but may differ in a detail not shown here. Equal entries are not always repeated.", "data": [{"protein": "Butyrylcholinesterase (usual, wild-type) of human plasma (enzyme, human (endogenous in plasma), UniProt P06276 29-602, looked up, Butyrylcholinesterase, human, Swissprot P06276, as it circulates in plasma; Subunit of the plasma enzyme; Plasma of the heterozygous family members also holds variant subunits (p.Val204Asp; p.Asp70Gly-p.Ala539Thr); also called BChE; pseudocholinesterase; source: endogenous, human plasma (genotype UU control and family members' plasma)) EDDIIIATKNGKVRGMNLTVFGGTVTAFLGIPYAQPPLGRLRFKKPQSLTKWSDIWNATKYANSCCQNIDQSFPGFHGSEMWNPNTDLSEDCLYLNVWIPAPKPKNATVLIWIYGGGFQTGTSSLHVYDGKFLARVERVIVVSMNYRVGALGFLALPGNPEAPGNMGLFDQQLALQWVQKNIAAFGGNPKSVTLFGESAGAASVSLHLLSPGSHSLFTRAILQSGSFNAPWAVTSLYEARNRTLNLAKLTGCSRENETEIIKCLRNKDPQEILLNEAFVVPYGTPLSVNFGPTVDGDFLTDMPDILLELGQFKKTQILVGVNKDEGTAFLVYGAPGFSKDNNSIITRKEFQEGLKIFFPGVSEFGKESILFHYTDWVDDQRPENYREALGDVVGDYNFICPALEFTKKFSEWGNNAFFYYFEHRSSKLPWPEWMGVMHGYEIEFVFGLPLERRDNYTKAEEILSRSIVKRWANFAKYGNPNETQNNSTSWPVFKSTEQKYLTLNTESTRIMTKLRAQQCRFWTSFFPKVLEMTGNIDEAEWEWKAGFHRWNNYMMDWKNQFNDYTSKKESCVGL", "values": [{"measurement": "stoichiometry N", "result": "4 and 2"}]}]}
